Laboratory results from a protein production outcome set (Wang et al. 2014).

Assay: label from the status in PepcDB records

Sequence | protein production
MPSPVLIAIDASPASSTLLTLARRYCRPGEHELHVLLAIDSTFAVHEQPAPYTAEELEEYPAACQEQQHADHAVAEAVRELQQAGFASQGCMVAGLPVEAIVTKAQELNCELIIMGHRHLSRLGRLLDPSISAKVIDRVDMPVLV | failed
MPSTVSSSRLGLAGLCILLAGQLLPMIDFSIVNVALDALAHSLGASETELELIVAVYGVAFAVCLAMGGRLGDNYGRRRLFVLGVALFAVASLLCGLAGSVWLLLVARALQGVGAALVVPQILATLHVSLSGHAHSRALAAYGAIGGLAFVVGQVLGGFLVSADIGGLGWRSVFLINLPICLGILLCSRRWVPETRAEHAARVDAPGTLLLAALILCLLLPLALGPSLHWSWPCALLLAAAVPLLAWLWRTELRQERRQAWPLLPPSLLRLPSIRFGLLLAILFFACWSGFMFALALALQAGAGLSPVQAGNAFIALGASYFVSALLTARVAARIGPVRLLLLGCVIQMCGLLGLMLTLQRVWPQPGILNLAPATLVIGFGQAFIVSSFFRIGLSEVPAAQAGAGSAMLATVQQASLGLGSALLGAVFAHRLERHGDYLEATQTTLAVEFVLMTLLLGATCLFYLRRVRTVPLRCDSPGN | failed
MPTLFDDPLHQLPRPPRRVAAGVVHLPNFLGLAEQKALVAQARDLAREVVGTPLAMVRPKLKSGQMSVHMLHLGKYWASNPYRYVDVVDGFPVPPLPDSFVDLAHRALLSAGSLSNSLQSWSEAYRAEAALVNYYSPDASMGMHQDANEESEAPVISLSIGDTGIFRLGGTLNRNKPWTDIPLMSGDLIVFGGANRQAFHGIPSIEANTAPAGCGLKEGRINITIRQLALLEHHHHHH | not failed
MPTPFDVTILGGGLAGRLCAWQLAQTGVPPARIAVVERGARDGSGSAAYVAAAMLAPLAEAAVADRFVVELGLASLTLWRDWLPMLRTPVFFQQAGTLVVWHPADRGEASLFANHVRAATPPERIAADLRAVDAEGIGTLEPALAQRFSQGLYLAGEGQLDNRAVLDALATELEALGVQLRWNTAVADPHPQALAAAGLGARLVLDCRGLGAQPQWPQLRGLRGEVARIHAPDVTLTRPVRMLHPRYPIYIAPKPGHVYVIGATEIESDDMSPVSVRSTLELLSAAYAVHPAFGEARVLELCTQCRPTLPDHRPAIRWDGAGTLSVNGLYRHGYMIAPAVAQAAVAAAHALLDGRAIDAPASAWPGLFAAPASPEPVLPLEHHHHHH | not failed
MPTTRKENLQFGMMMCLGMVIVMTFYNLLMNETGGPIYIKEIALELLIGFIIALLIEISIVGPCAKKIVFMLPFDKSKKINIIVAMATTMVIGMVFFMSFFGMAMMHLHGGLQGASFVSIYFSIFIKNFIMAYPLQLIIMGPLVRFLFAKFVMKKKSFNVA | failed
MPTVAPLDIEGHVVSTHFLGDIPLFATAAGTIHRLDGGEKVTEAHDGLLTCIRDPYSATLLSGGEDGRVLRIGHDGSISEIANVPRKWVGVVAGGPQKAVAYGVGKSSFVRLSDCTVKEFKEERTVEAIAFAPKGLRIAVARYNGVTLHWVATAGDPVDLEWKGAHTGVTFSPDGKFLVTTMQENALHGWKMEATKGGMEARHMRMTGYPAKVKSISWSVKGKWLASSGAPAAIVWPFSGKDGPMGKAPEELGSRANIMATNVAFHPVEDVLAIGFIDGMILGVRLADGKEALLRRPGKGAITSMDWSATGNLLAFASEAGDCGIIDISALEHHHHHH | failed
MPTVKSRLVLYFPGFDPLDAAAHHLRYQRAAALAGKTWDVNYAVGPRESRPAGEAFTVEASAGNWSTRSDIVVYDHNDVISQLRDASVWRQIWLGFKAGAGIVSEGGAARYLRHAWRFGLFFIFPFLLMLAGGALAAGIALSPWLFSLPLWLLVVSIPAAALFFVKAFLPFAERFHTLHLYADWRFALAVGRNEPIARDWIEERAALVVTALEEPSDEVLVVSHSMGASLALAVIGRVLELKPDALDGRKLSFATLGGAALQCAFLSSAERLRESIGAIARHPDVTWFDIQCLTDPIHLYRCNTVALTGHKDAPQPKIVPIRFKHSLSPERYKKNKRNFLRMHRQYVLGPDRRSGYDFTLLTAGPLPAASFADLESQSPPAL | failed
MPVAATNSETAMQQVLDNLGSLPSATGAAELDLIFLRGIMESPIVRSLAKAHERLEETKLEAVRDNNLELVQEILRDLAQLAEQSSTAAELAHILQEPHFQSLLETHDSVASKTYETPPPSPGLDPTFSNQPVPPDAVRMVGIRKTAGEHLGVTFRVEGGELVIARILHGGMVAQQGLLHVGDIIKEVNGQPVGSDPRALQELLRNASGSVILKILPSYQEPHLPRQVFVKCHFDYDPARDSLIPCKEAGLRFNAGDLLQIVNQDDANWWQACHVEGGSAGLIPSQLLEEKRKAFVKRDLELTPNSGTLCGSLSGKKKKRMMYLTTKNAEFDRHELLIYEEVARMPPFRRKTLVLIGAQGVGRRSLKNKLIMWDPDRYGTTVPYTSRRPKDSEREGQGYSFVSRGEMEADVRAGRYLEHGEYEGNLYGTRIDSIRGVVAAGKVCVLDVNPQAVKVLRTAEFVPYVVFIEAPDFETLRAMNRAALESGISTKQLTEADLRRTVEESSRIQRGYGHYFDLCLVNSNLERTFRELQTAMEKLRTEPQWVPVSWVY | not failed
MPVILCPAAEESSGLMMKSAETASLTVSHNELQAMAYTDPLTGLGNRNRMRDKVLQISAERASDPAPFTIGIANLDSFKPINDLFGSSAGDEILCQVAHRLRACIPDGALVTRHDGDEFAFVLPLIFERASAEKFGQMIREVLSAPYDLGDRNVRLSASFGFAIYPFAGEDCEELLKSAETALYRSKRRGRGQITVYSREIAQEMKRATQLEQALRNAIISDAIDVHFQPIVSLANNQVVGFEALARWNDPDLGFVSPGVFVPLAEERGFIDALSEALLRKAAEAALSWPRELFLSFNLSSAQLMDPGTSGSILSILGRVGFDPHRLELEITETAVMGSADTAHRIIADLRAAGVRISLDDFGTGQSSLGRLRDFIFDKIKIDRAFVSRINSDRASEHIIKAILSLCEGLELEVVAEGIEDYAEAVKLRTLGCGMGQGYHFGRPADGIATLRFLHENYYDMAPAERVSA | failed
MPVKLAQALANPLFPALDSALRSGRHIGLDELDNHAFLMDFQEYLEEFYARYNVELIRAPEGFFYLRPRSTTLIPRSVLSELDMMVGKILCYLYLSPERLANEGIFTQQELYDELLTLADEAKLLKLVNNRSTGSDVDRQKLQEKVRSSLNRLRRLGMVWFMGHDSSKFRITESVFRFGADVRAGDDPREAQRRLIRDGEAMPIENHLQLNDETEENQPDSGEEE | failed
MPVLATSLVSLKVEEPYLPPRNWESLPSQSGRFLPPTRSSASSSSSSSFVSESSLVRLALNALQGVESSLISIEQLSSAFCSEPADRTFHKIPSLWHRLSSTDALGQILRDIGCFGSLVFLLHKFVDHFTRLNLDVESAVEGQGSCKIGENEEVNNKSCYTLVNQAFAIAVRRVLEGYISGLDTLCASIELRRSSNIVDGSDHGSSRLGSLTNVVHPKITLLEVFLHTRELRTQIEALANICDLYDIALSYCASPWECLITEATTRFHGFYRGSDLLTYLYSQLQVADPTHSAMLKFLFLKTCEPYCEFIRSWMFKAELNDPHKEFIVECRSESTSFSWNKPGISPLKSVRERGGLVPCFLNGFLEPIVRAGQQLQVITKLLELCNLPASGHKNYTDLLPCWTYFSTTSPGYPSPITFSKLHIEVMIKKRDDYYRMMQEKLGDFSEKFEVFPGQVPGAISLPISYGDGDKNSIYFTLDESLLIPSTMAIDLTRDQSGSDSDDQNTEDRWFSEIDASCSSECSSTRDSLEASEVGLLDSQSTLVGPPPNYLSALRFSVASNGNCNQNLVQHSDSGYIDNNLVRQGEKADINHQWVDTKPEESTGVCEDDKFRGPLLIKSWPLGGLPRNPFCVDKKSADDDSEDPRNYSGARMEQRHLMNTDERKLFLNNISTSGSCSKHERRHDVLENCLSSKLDLMKDTKVNYPNDVLSMNPLVRCDFLRKHGNTNKRNQGKSLPWFDFSAVDDPSKTCITRIPVRVPIDFQKESHSPQTDRKSHRHANQERFDVEDPKVSSSQLSSGIKGCAEEKKSNAFGGGRWESMLRRSNNPETSAFSDRRQDSSGTFELPLDFVIDKCLLQEIHLQYPSRYFHLLEIYIFSKLAIKLLEEGFGLQEHLLALRRYHFMELADWADVFVVSLWHHKWLVTEADKRIAEIQGFLESSIQRSSCERDICKDRIFLYKRQGTMHIPPSTIGVRSFDFLRLGYRVDWPISIILTCDALTAYADVFSFLVQVKLAAYVLTDVWCSLKVKDMMDLESVHMAYLSEALRIGIQSTDRVPNDSWTKTLGINTSQNFDKELKELHKCHLRSPKHGKYGLSRFWDYLNFNLYYSDILHDSNIFSLIP | failed
MPVSQQCIKACGFMHPRRLQWLTFSTSPAHPVRLFLAHLYSFASRFVMTTPNPDPLHGVTLEQILRALIEHYEWSGLAERIDIRCFKSDPSIKSSLTFLRKTPWAREKVEALYVKLHRGKGW | failed
MPVYLYYGEDTYSLNQKIDHLVNQNVHAEWKDFNYIKLSGNEKNIAAKVFTEVMTLPFGEGNKIVHTDSDHLIGSLSNEDNNQELENQLSRIPASNILLITSNKKPDSRRTVVKTILKYAQQEEFPLVPCWDKKGIVNLIGKYAAIHQVKFTPDVTDYLVEAIGNNTARVDSEFAKLAVYASEKIISLEEIKQLVSNHNTDYQKLTIAMLRNHSNLAIAQVDKLLDSNEHPLKIVATLTSFFRTWLITKAGVEARLSDIKIAEIAEVKNPKRLYYLKDEIKFVGVQKLKNSLTLLLQLETELKSGTNNLISRIIEICMI | failed
MPWKNTESRYSTMTIALHWLMLVLLAVVYACIEFRGIFPKGSGGRTLIVEAHFMLGLTVFALVWLRLFARAQGVAPKILPTPPHWQRLLSTLMHWALYLFMIAMPILGWLTTSAKGHQVMFYGLDLPLLLAENKPLAKQLQGWHELLGTVGYWLIGLHALAGLYHHYVMRDNTLQRMWRKRGQA | failed
MPWLLPREIAPLHQKALDRYLGSLTERLSDPNVDRNALVREELARLLYGRPYEELLEANPLAAMGLDPEGITFEAEYYAATDLEKFRRVKPLLWFWKVLDLTPLGQSVHSGVAIRRALAPFIFKRVGKNPKFFQNVEFSVGYNLELGDDVVVHRYVFLDDIGGIKIGDRTSLSDYVNVYSHTHHVLASPDVTLKETIIGSGVRITYHATVLAGVRIGDDAMVGTGAVVTKDIPPHAIALGIPARPVRYKVRHDCPYCRKGEPHPSDLVPKLPDRKGNPDYPDFLPPGFGTREAGS | failed
MPYAIDFGTTNTVIARWNEATRQGNLIDLPSLSHPLGDSGPLVPSLLYVENAALGQVAIAREVLDRGRDISTDTRFFKNFKRGIGVAVQGFLPQLDGHTLSLETLGQWYLDKLIRILTEQEGQGPDCLALTVPVDSFESYRHWLSHTCRSWGVEEVRLVDEPTAAALGYGVGDASQILVLDFGGGTVDFSWVQLGDRGQKGRSGFLLKWGGILGGSKAEEKSALAKVLAKAGANLGGSDIDYWISEYFTEAQGLQVSPWIRRLAERLKIALGEAEEATEVYFDDQALESYEFQLRRSDLTEILQQRQFFERLTALWEQVQQTAQRRGLTPANLDAVLVVGGTSQLPMVQDWINAQFPAGKIRNQQPFGAIALGALQIYQGREVQDYLYHSYGVRYWNRRKNSHNWHPIIKNGQTYPMAEPIELTLGASLDNQPSIELIVGELGSSIGATEVYFDGNQLITRVLENQAFTVQPLNDRNGARQIAQLSPPGVPGGDRIKVKFWVDDQRYLRLTVEDLLQQKLLLENQVVAQLRLEHHHHHH | failed
MPYINELRNHKFLIILVDLLCILAAYIAAFYIRYQGFPAKNWESFVSLLPWILLIGLFFISVYELYALDRKNTLWDILVKIFVAVTFMAFLTMAASYFFREFALPRSILFIASVFTIVLLATWKYVFLKLTRRNVVGKVLFIGDDDNTERMISKIKHPMLKGTSIKQVHPNIPMDKINHYMRHADYIILCTSIQKEKKSMIIYHAMECNKLVYVVPTLYELLLQRSSVTPLDDTMLMSVKPFGLTWDQAFIKRAFDVVTSAFTLICTSPLLPISCNFN | failed
MPYLYLLLAIVSEVIGSAFLKSSDGFSKLYPTITTIISYLISFYFLSKTMQHLPLNIAYASWSGLGLVLTTIVSVLIFKEQINLISIISIILIIFGVVLLNTFGSSH | failed
